Assay [1] has as its target murine ITGA11 expressed in CHO cells (murine) (UniProt P61622). In words: flow cytometry, 34 nM antibody on CHO cells expressing murine ITGA11.
Assay [2] has as its target human ITGA11 expressed in mouse C2C12 cells (human) (UniProt Q9UKX5). Kind of assay: flow cytometry, 34 nM antibody on C2C12 cells expressing human ITGA11. For orientation: Flow cytometry measures light scatter and fluorescence of single cells or particles in a stream.

murine ITGA11 expressed in CHO cells (murine), sequence (P61622 23-1188): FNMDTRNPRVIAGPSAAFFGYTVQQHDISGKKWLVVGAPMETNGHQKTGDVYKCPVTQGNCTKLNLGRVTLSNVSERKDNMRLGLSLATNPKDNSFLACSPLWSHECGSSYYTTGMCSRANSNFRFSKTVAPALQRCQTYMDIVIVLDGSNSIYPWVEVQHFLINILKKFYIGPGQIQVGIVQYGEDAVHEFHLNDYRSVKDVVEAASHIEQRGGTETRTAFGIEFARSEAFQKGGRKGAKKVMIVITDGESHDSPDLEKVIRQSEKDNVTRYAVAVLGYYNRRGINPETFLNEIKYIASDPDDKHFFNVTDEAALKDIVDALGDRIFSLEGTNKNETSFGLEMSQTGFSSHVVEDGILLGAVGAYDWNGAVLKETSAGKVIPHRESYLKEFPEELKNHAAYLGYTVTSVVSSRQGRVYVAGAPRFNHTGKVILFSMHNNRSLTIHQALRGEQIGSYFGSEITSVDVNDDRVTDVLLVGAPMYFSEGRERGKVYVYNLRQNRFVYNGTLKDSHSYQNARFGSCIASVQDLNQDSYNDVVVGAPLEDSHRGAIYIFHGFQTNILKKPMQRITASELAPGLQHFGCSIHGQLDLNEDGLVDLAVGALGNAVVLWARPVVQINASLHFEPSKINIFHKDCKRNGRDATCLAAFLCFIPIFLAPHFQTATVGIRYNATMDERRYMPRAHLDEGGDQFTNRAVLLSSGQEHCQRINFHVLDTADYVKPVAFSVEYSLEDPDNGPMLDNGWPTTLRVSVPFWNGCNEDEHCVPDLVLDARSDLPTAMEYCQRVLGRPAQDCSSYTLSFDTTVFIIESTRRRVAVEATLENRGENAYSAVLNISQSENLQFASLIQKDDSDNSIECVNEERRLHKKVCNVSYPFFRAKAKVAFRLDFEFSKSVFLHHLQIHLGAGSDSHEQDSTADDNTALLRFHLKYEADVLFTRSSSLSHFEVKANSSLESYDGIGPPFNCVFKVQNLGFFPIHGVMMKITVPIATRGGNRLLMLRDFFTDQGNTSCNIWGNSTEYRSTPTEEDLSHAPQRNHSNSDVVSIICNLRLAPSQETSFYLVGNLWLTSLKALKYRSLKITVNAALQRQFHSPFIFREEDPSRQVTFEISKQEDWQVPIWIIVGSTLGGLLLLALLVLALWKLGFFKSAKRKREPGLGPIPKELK
human ITGA11 expressed in mouse C2C12 cells (human), sequence (Q9UKX5 23-1188): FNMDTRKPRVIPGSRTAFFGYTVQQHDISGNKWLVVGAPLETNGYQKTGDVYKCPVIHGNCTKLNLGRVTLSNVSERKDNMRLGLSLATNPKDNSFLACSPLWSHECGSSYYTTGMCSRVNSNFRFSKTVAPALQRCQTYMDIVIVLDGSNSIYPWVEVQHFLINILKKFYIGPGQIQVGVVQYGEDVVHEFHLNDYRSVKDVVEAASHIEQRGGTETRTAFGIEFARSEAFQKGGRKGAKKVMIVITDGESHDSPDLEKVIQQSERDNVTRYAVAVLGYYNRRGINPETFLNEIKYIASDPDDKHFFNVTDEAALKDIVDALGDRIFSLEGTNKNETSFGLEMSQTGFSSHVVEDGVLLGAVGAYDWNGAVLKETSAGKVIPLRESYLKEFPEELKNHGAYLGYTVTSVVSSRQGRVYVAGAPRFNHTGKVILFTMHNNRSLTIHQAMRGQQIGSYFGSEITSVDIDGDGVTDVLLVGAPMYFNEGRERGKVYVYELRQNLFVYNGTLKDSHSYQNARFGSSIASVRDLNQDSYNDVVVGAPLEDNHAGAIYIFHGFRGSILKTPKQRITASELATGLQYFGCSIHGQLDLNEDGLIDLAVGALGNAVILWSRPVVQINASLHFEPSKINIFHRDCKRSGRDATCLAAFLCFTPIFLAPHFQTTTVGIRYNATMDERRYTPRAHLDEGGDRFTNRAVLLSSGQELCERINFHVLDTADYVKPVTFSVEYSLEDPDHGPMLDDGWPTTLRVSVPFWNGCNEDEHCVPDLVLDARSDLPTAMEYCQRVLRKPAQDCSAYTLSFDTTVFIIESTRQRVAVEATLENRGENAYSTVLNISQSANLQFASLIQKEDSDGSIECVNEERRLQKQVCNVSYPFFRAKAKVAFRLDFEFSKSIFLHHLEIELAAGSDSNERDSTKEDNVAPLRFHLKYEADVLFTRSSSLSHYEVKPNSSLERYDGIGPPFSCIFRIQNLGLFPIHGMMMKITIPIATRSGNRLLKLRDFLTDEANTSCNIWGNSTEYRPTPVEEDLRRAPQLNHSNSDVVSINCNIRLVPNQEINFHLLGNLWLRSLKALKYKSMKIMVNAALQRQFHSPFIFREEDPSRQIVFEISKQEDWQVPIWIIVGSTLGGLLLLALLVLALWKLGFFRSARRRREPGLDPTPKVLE

As to Control IgG4 (antibody), the MFI in assay [1] turned out to be 513 MFI; in assay [2] it was 557 MFI.
